Measured values taken from publication PMC7744049.

Target: SARS-CoV RBD (residues 306-527 of the spike protein) (SARS-CoV) (UniProt P59594)

**Q.** CR3022 IgG (antibody) was tested. Which pseudovirus neutralization assay (SARS-CoV spike on pseudovirus), IC50 did it give?
**A.** The pseudovirus neutralization assay (SARS-CoV spike on pseudovirus), IC50 was 5.2 µg/mL.
